In patent publication EP0959894B1:
Where two headings read alike, the source gives them in different places.

What was measured:
[1] = molecular target: tissue plasminogen activator (t-PA) (UniProt P00750); test: inhibition kinetics from residual enzyme activity (chromogenic assay), pseudo-first or second order conditions
[2] = molecular target: urokinase-type plasminogen activator (u-PA) (UniProt P00749); test: ratio of the rate constants toward u-PA and toward t-PA
[3] = molecular target: tissue plasminogen activator (t-PA) (UniProt P00750); test: ratio of the rate constants toward t-PA and toward u-PA
[4] = molecular target: urokinase-type plasminogen activator (u-PA) (UniProt P00749); test: inhibition kinetics from residual enzyme activity (chromogenic assay), pseudo-first or second order conditions
[5] = molecular target: tissue plasminogen activator (t-PA) (UniProt P00750); test: as above; remark: listed apart in the source
[6] = molecular target: urokinase-type plasminogen activator (u-PA) (UniProt P00749); test: ratio of the second order rate constants for inhibition
[7] = molecular target: urokinase-type plasminogen activator (u-PA) (UniProt P00749); test: inhibition kinetics from residual enzyme activity (chromogenic assay), pseudo-first or second order conditions; remark: listed apart in the source
[8] = molecular target: urokinase-type plasminogen activator (u-PA) (UniProt P00749); test: ratio of selectivities from second order rate constants for inhibition
[9] = molecular target: tissue plasminogen activator (t-PA) (UniProt P00750); test: as above
[10] = molecular target: urokinase-type plasminogen activator (u-PA) (UniProt P00749); test: ratio of second order rate constants for inhibition

Chain of tissue plasminogen activator (t-PA) (P00750 36-562 limits assumed): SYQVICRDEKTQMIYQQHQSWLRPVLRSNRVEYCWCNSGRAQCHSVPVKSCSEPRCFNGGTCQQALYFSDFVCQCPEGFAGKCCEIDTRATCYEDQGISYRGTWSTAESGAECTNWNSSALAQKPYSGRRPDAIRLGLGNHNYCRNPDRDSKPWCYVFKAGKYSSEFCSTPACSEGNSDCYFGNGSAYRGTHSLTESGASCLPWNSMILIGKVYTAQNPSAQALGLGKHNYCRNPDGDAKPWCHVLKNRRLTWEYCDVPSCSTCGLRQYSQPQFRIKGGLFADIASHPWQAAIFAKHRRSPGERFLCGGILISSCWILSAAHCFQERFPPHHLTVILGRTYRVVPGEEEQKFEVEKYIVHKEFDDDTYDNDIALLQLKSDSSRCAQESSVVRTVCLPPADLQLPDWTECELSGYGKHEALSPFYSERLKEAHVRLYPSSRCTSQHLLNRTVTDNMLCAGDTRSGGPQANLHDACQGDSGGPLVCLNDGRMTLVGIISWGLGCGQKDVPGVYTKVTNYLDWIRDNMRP

Substance | second order rate constant for inhibition [1] | t-PA/u-PA Selectivity (as headed; the value is the u-PA/t-PA ratio) [2] | t-PA/u-PA Selectivity [3] | second order rate constant for inhibition [4] | second order rate constant for inhibition [5] | fold specificity toward u-PA over t-PA [6] | second order rate constant for inhibition [7] | fold gain of u-PA/t-PA selectivity against wild type PAI-1 [8] | fold gain of t-PA selectivity against the P3 arginine variant of PAI-1 [9] | fold gain of t-PA/u-PA selectivity against wild-type PAI-1 [9] | fold reduction of activity against wild type PAI-1 [10] | fold reversal in specificity toward t-PA against wild type PAI-1 [9]
PAI-1/P4Q (from UniProt P05121 24-402) | 1.6e+06 M⁻¹ s⁻¹ |  | 0.08 |  |  |  | 1.9e+07 M⁻¹ s⁻¹ |  |  |  |  | 
PAI-1/UK1 (from UniProt P05121 24-402) |  | 69 |  | 6.2e+06 M⁻¹ s⁻¹ | 90000 M⁻¹ s⁻¹ |  |  | 7 fold |  |  |  | 
PAI-1/P4Q,P3R (from UniProt P05121 24-402) | 1.4e+06 M⁻¹ s⁻¹ |  | 48 |  |  |  | 29000 M⁻¹ s⁻¹ |  | 3.5 fold | 600 fold |  | 

More lines, now with the values ahead:

second order rate constant for inhibition [1] | t-PA/u-PA Selectivity (as headed; the value is the u-PA/t-PA ratio) [2] | t-PA/u-PA Selectivity [3] | second order rate constant for inhibition [4] | second order rate constant for inhibition [5] | fold specificity toward u-PA over t-PA [6] | second order rate constant for inhibition [7] | fold gain of u-PA/t-PA selectivity against wild type PAI-1 [8] | fold gain of t-PA selectivity against the P3 arginine variant of PAI-1 [9] | fold gain of t-PA/u-PA selectivity against wild-type PAI-1 [9] | fold reduction of activity against wild type PAI-1 [10] | fold reversal in specificity toward t-PA against wild type PAI-1 [9] | Substance
1.6e+06 M⁻¹ s⁻¹ | 11 | 0.08 | 1.9e+07 M⁻¹ s⁻¹ | 1.8e+06 M⁻¹ s⁻¹ | 11.9 fold |  |  |  |  |  |  | Wild type PAI-1 (recombinant human plasminogen activator inhibitor type 1) (from UniProt P05121 24-402)
1.4e+06 M⁻¹ s⁻¹ |  | 14 |  |  |  | 100000 M⁻¹ s⁻¹ |  |  |  | 190 fold | 170 fold | PAI-1/P3R (from UniProt P05121 24-402)
